Results from paper PMC2863221 (The Journal of Biological Chemistry, 2010).

Target: the molecule itself
Assay: SDS-PAGE and Western blot

B1: HA-tagged rat syndecan-4 AAA mutant (serines 44, 65 and 67 mutated to alanine; no glycosaminoglycan chains) (receptor, UniProt P34901 24-202, looked up)
chain: ESIRETEVIDPQDLLEGRYFAGALPDDEDAGGLEQDSDFELAGAGDLDDTEEPRTFPEVISPLVPLDNHIPENAQPGIRVPSEPKELEENEVIPKRVPSDVGDDDVSNKVSMSSTSQGSNIFERTEVLAALIVGGVVGILFAVFLILLLVYRMKKKDEGSYDLGKKPIYKKAPTNEFYA
- stoichiometry N: 2
